Laboratory results published in PMC6593402, “The Structure of an Injectisome Export Gate Demonstrates Conservation of Architecture in the Core Export Gate between Flagellar and Virulence Type III Secretion Systems” (mBio, 2019).
Several values for one entry are separate records, joined by “and”; a condition that tells them apart may be missing. Identical values can stand only once.

T1: Salmonella enterica serovar Typhimurium FliR (Salmonella enterica serovar Typhimurium, UniProt P54702 1-264)
T1 construct: FliR, flagellar export gate component, Salmonella enterica serovar Typhimurium; expressed from the complete operon; 'full length' rests on the words 'the same strategy of expression of the complete operon'; source: purified from membranes
T1 sequence: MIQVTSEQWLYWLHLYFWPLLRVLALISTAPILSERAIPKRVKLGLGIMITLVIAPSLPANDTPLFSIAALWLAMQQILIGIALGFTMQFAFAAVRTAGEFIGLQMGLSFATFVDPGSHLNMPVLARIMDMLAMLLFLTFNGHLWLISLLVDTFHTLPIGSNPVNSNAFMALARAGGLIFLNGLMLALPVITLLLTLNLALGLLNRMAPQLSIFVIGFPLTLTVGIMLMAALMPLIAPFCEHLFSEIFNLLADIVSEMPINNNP

B1: Salmonella enterica serovar Typhimurium FliP (natural protein)
chain: QLPGLISQPLAGGGQSWSLSVQTLVFITSLTFLPAILLMMTSFTRIIIVFGLLRNALGTPSAPPNQVLLGLALFLTFFIMSPVIDKIYVDAYQPFSEQKISMQEALDKGAQPLRAFMLRQTREADLALFARLANSGPLQGPEAVPMRILLPAYVTSELKTAFQIGFTIFIPFLIIDLVIASVLMALGMMMVPPATIALPFKLMLFVLVDGWQLLMGSLAQSFYS
notes: FliP, flagellar export gate component, Salmonella enterica serovar Typhimurium; expressed from the complete operon; source: purified from membranes
B2: Shigella flexneri SctS (Spa9) (natural protein)
chain: MSDIVYMGNKALYLILIFSLWPVGIATVIGLSIGLLQTVTQLQEQTLPFGIKLIGVSISLLLLSGWYGEVLLSFCHEIMFLIKSGV
notes: Spa9 (SctS), export gate component of the Shigella flexneri virulence type III secretion system; expressed from the complete operon (Spa24/Spa9/Spa29); Two to four copies stand in the SctRST complexes; 'full length' rests on the words 'expression of the complete operon'; source: E. coli BL21, co-expressed from plasmid pT12_Spa24929, membranes dissolved in 1% LMNG, purified (StrepTrap, SEC)
B3: Salmonella enterica serovar Typhimurium FliQ (natural protein)
chain: MTPESVMMMGTEAMKVALALAAPLLLVALITGLIISILQAATQINEMTLSFIPKIVAVFIAIIVAGPWMLNLLLDYVRTLFSNLPYIIG
notes: FliQ, flagellar export gate component, Salmonella enterica serovar Typhimurium; expressed from the complete operon; 'full length' rests on the words 'the same strategy of expression of the complete operon'; source: purified from membranes

Key:
[1] = target: the molecule itself; assay: cryo-EM structure; re-refinement in RELION-3 of the original S. Typhimurium FliPQR single-particle data of ref. 17 (particle polishing, per-particle CTF refinement), 3.65 Å; coordinates remodeled and re-refined
[2] = target: T1, Salmonella enterica serovar Typhimurium …; assay: as above; details: both partners purified
[3] = target: the molecule itself; assay: cryo-EM structure; SctRST co-expressed from the operon in E. coli, complex purified by the Dual-Strep tag on SctT and SEC; 0.01% LMNG in TBS (100 mM Tris, 150 mM NaCl, 1 mM EDTA, pH 8), 8.4 mg/ml; single-particle reconstruction at 3.5 Å, with further 3D classification of the particle set
[4] = target: B1; assay: cryo-EM structure; re-refinement in RELION-3 of the original S. Typhimurium FliPQR single-particle data of ref. 17 (particle polishing, per-particle CTF refinement), 3.65 Å; coordinates remodeled and re-refined; details: both partners purified

Binder | binding result [1] | binding result [2] | stoichiometry N [3] | binding result [4]
B1 | binds | binds | – | –
B2 | – | – | 2 and 3 | –
B3 | binds | binds | – | binds
